Article PMC10397247
Read-outs that look alike come from different tables or passages of the source. Values belong to the binder of their own block, whether it stands above or below them.

Experiments:
Experiment in all cases: two-hybrid library CCNG1;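 note: natural log of median RNA to DNA barcode read ratio; higher means stronger binding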
4H1828-bN = molecular target: T1, 4H1828-bN
T1 chain: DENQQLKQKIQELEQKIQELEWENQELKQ

4H1845-bN = molecular target: T2, 4H1845-bN
T2 chain: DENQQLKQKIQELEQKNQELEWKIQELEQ

4H2442-bN = molecular target: T3, 4H2442-bN
T3 chain: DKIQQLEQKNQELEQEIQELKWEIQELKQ

4H2576-bN = molecular target: T4, 4H2576-bN
T4 chain: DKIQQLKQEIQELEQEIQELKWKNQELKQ

4H2618-bN = molecular target: T5, 4H2618-bN
T5 chain: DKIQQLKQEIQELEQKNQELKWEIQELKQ

4H2667-bN = molecular target: T6, 4H2667-bN
T6 chain: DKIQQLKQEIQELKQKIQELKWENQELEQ

4H2697-bN = molecular target: T7, 4H2697-bN
T7 chain: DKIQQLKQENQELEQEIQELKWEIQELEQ

4H2729-bN = molecular target: T8, 4H2729-bN
T8 chain: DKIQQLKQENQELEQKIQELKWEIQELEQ

4H3112-bN = molecular target: T9, 4H3112-bN
T9 chain: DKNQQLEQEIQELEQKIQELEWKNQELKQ

4H3185-bN = molecular target: T10, 4H3185-bN
T10 chain: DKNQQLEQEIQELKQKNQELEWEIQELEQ

4H331-bN = molecular target: T11, 4H331-bN
T11 chain: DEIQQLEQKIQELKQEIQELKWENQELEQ

4H3354-bN = molecular target: T12, 4H3354-bN
T12 chain: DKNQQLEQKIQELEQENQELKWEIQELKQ

4H338-bN = molecular target: T13, 4H338-bN
T13 chain: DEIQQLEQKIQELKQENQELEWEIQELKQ

4H3427-bN = molecular target: T14, 4H3427-bN
T14 chain: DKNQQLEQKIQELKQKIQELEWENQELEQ

4H3782-bN = molecular target: T15, 4H3782-bN
T15 chain: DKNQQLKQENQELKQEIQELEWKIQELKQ

4H3855-bN = molecular target: T16, 4H3855-bN
T16 chain: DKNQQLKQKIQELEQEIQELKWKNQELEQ

4H4001-bN = molecular target: T17, 4H4001-bN
T17 chain: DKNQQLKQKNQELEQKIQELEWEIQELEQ

4H454-bN = molecular target: T18, 4H454-bN
T18 chain: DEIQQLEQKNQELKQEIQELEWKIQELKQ

4H568-bN = molecular target: T19, 4H568-bN
T19 chain: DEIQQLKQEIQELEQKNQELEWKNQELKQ

4H607-bN = molecular target: T20, 4H607-bN
T20 chain: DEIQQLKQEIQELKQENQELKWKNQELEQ

4H687-bN = molecular target: T21, 4H687-bN
T21 chain: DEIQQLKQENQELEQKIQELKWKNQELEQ

4H717-bN = molecular target: T22, 4H717-bN
T22 chain: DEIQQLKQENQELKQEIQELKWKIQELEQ

4H72-bN = molecular target: T23, 4H72-bN
T23 chain: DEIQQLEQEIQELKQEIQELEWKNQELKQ

4H754-bN = molecular target: T24, 4H754-bN
T24 chain: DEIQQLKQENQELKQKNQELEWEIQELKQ

4H797-bN = molecular target: T25, 4H797-bN
T25 chain: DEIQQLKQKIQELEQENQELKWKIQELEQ

4H883-bN = molecular target: T26, 4H883-bN
T26 chain: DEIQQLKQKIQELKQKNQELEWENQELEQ

4H908-bN = molecular target: T27, 4H908-bN
T27 chain: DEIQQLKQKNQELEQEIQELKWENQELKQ

4H918-bN = molecular target: T28, 4H918-bN
T28 chain: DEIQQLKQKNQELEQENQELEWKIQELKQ

4H953-bN = molecular target: T29, 4H953-bN
T29 chain: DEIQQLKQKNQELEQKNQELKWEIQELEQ

4H967-bN = molecular target: T30, 4H967-bN
T30 chain: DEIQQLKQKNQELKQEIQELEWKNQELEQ

O10-bS = molecular target: T31, O10-bS; conditions: mean of both orientations
T31 chain: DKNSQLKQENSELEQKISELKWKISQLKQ

O11-bS = molecular target: T32, O11-bS
T32 chain: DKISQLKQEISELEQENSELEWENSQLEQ

O12-bS = molecular target: T33, O12-bS
T33 chain: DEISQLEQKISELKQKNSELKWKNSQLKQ

O13-bS = molecular target: T34, O13-bS
T34 chain: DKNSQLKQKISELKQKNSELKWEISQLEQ

O15-bS = molecular target: T35, O15-bS
T35 chain: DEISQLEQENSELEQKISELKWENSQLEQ

O16-bS = molecular target: T36, O16-bS
T36 chain: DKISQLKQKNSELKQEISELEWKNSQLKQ

O2-bS = molecular target: T37, O2-bS
T37 chain: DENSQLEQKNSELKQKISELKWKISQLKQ

O3-bS = molecular target: T38, O3-bS
T38 chain: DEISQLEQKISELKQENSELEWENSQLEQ

O4-bS = molecular target: T39, O4-bS
T39 chain: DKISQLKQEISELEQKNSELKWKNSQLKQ

O5-bS = molecular target: T40, O5-bS
T40 chain: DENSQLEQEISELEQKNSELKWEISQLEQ

O6-bS = molecular target: T41, O6-bS
T41 chain: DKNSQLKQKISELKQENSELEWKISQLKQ

O7-bS = molecular target: T42, O7-bS
T42 chain: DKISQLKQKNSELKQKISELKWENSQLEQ

O8-bS = molecular target: T43, O8-bS
T43 chain: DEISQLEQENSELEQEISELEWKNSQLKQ

O9-bS = molecular target: T44, O9-bS
T44 chain: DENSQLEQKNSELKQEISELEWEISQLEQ

O14-bS = molecular target: T45, O14-bS
T45 chain: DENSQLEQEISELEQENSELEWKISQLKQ

4H2134-bN = molecular target: T46, 4H2134-bN
T46 chain: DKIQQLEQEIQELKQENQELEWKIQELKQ

4H2143-bN = molecular target: T47, 4H2143-bN; conditions: mean of both orientations
T47 chain: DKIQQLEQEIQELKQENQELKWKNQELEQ

4H2223-bN = molecular target: T48, 4H2223-bN
T48 chain: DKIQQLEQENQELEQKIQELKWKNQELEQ

4H2438-bN = molecular target: T49, 4H2438-bN
T49 chain: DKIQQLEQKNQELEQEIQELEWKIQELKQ

4H2473-bN = molecular target: T50, 4H2473-bN
T50 chain: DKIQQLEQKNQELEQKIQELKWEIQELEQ

4H2503-bN = molecular target: T51, 4H2503-bN
T51 chain: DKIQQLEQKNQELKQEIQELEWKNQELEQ

4H2588-bN = molecular target: T52, 4H2588-bN
T52 chain: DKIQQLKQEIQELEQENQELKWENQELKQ

4H2692-bN = molecular target: T53, 4H2692-bN
T53 chain: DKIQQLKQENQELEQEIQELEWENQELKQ

4H2717-bN = molecular target: T54, 4H2717-bN
T54 chain: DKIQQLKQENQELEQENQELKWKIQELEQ

4H2839-bN = molecular target: T55, 4H2839-bN
T55 chain: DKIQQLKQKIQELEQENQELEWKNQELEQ

4H2915-bN = molecular target: T56, 4H2915-bN
T56 chain: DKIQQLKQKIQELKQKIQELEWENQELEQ

4H3057-bN = molecular target: T57, 4H3057-bN
T57 chain: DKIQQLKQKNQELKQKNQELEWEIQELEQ

4H319-bN = molecular target: T58, 4H319-bN
T58 chain: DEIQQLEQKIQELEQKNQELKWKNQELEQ

4H3277-bN = molecular target: T59, 4H3277-bN
T59 chain: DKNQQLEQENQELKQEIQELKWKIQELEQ

4H348-bN = molecular target: T60, 4H348-bN
T60 chain: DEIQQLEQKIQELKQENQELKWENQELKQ

4H40-bN = molecular target: T61, 4H40-bN
T61 chain: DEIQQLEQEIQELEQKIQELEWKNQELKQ

4H477-bN = molecular target: T62, 4H477-bN
T62 chain: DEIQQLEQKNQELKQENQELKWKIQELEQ

4H492-bN = molecular target: T63, 4H492-bN
T63 chain: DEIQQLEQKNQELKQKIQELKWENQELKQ

4H741-bN = molecular target: T64, 4H741-bN
T64 chain: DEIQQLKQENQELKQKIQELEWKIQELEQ

interaction score (4H1828-bN): 1.19
interaction score (4H1845-bN): -0.541
interaction score (4H2442-bN): -0.746
interaction score (4H2576-bN): 1.52
interaction score (4H2618-bN): 0.00935
interaction score (4H2667-bN): 1.18
interaction score (4H2697-bN): -0.202
interaction score (4H2729-bN): -0.165
interaction score (4H3112-bN): 0.443
interaction score (4H3185-bN): -0.135
interaction score (4H331-bN): 0.0332
interaction score (4H3354-bN): -1.74
interaction score (4H338-bN): -0.738
interaction score (4H3427-bN): -0.728
interaction score (4H3782-bN): 0.26
interaction score (4H3855-bN): 0.0633
interaction score (4H4001-bN): -0.709
interaction score (4H454-bN): -1.22
interaction score (4H568-bN): -0.67
interaction score (4H607-bN): -0.0859
interaction score (4H687-bN): -0.773
interaction score (4H717-bN): -0.318
interaction score (4H72-bN): 0.18
interaction score (4H754-bN): -2.15
interaction score (4H797-bN): -1.07
interaction score (4H883-bN): -0.284
interaction score (4H908-bN): -1.28
interaction score (4H918-bN): -1.16
interaction score (4H953-bN): -0.334
interaction score (4H967-bN): -0.704
Binder: DENQQLKQKIQELEQKIQELEWENQELKQ [4H1828-bN]

interaction score (O10-bS): -1.52
interaction score (O11-bS): -2
interaction score (O12-bS): -2.63
interaction score (O13-bS): -0.797
interaction score (O15-bS): 0.0876
interaction score (O16-bS): -0.405
interaction score (O2-bS): -1.55
interaction score (O3-bS): -0.954
interaction score (O4-bS): -0.565
interaction score (O5-bS): -1.67
interaction score (O6-bS): -0.631
interaction score (O7-bS): -0.783
interaction score (O8-bS): -1.24
interaction score (O9-bS; mean of both orientations): 0.492
Binder: DKNSQLKQENSELEQKISELKWKISQLKQ [O10-bS]

interaction score (O11-bS): -1.25
interaction score (O12-bS): 1.88
interaction score (O13-bS): -0.61
interaction score (O14-bS): -2.92
interaction score (O15-bS): -0.753
interaction score (O16-bS): -0.701
interaction score (O2-bS): -0.471
interaction score (O3-bS): -1.25
interaction score (O4-bS): 0.272
interaction score (O5-bS): -2.35
interaction score (O6-bS): -0.902
interaction score (O7-bS): -1.17
interaction score (O8-bS): -3.31
interaction score (O9-bS): -2.56
Binder: DKISQLKQEISELEQENSELEWENSQLEQ [O11-bS]

interaction score (4H2134-bN): 1.45
interaction score (4H2143-bN): 0.912
interaction score (4H2223-bN): -0.162
interaction score (4H2438-bN): 0.477
interaction score (4H2473-bN): 0.214
interaction score (4H2503-bN): -0.659
interaction score (4H2588-bN): -0.119
interaction score (4H2692-bN): 0.473
interaction score (4H2717-bN): -0.26
interaction score (4H2839-bN): 0.142
interaction score (4H2915-bN): -1.35
interaction score (4H3057-bN): 0.93
interaction score (4H319-bN): 0.833
interaction score (4H3277-bN): -0.911
interaction score (4H348-bN): -0.138
interaction score (4H40-bN): -0.166
interaction score (4H477-bN): 0.581
interaction score (4H492-bN): -1.68
interaction score (4H741-bN): 0.14
Binder: DKIQQLEQEIQELKQENQELEWKIQELKQ [4H2134-bN]
